Data reported in paper PMC2973826, “Translation Elongation Factor 1A Facilitates the Assembly of the Tombusvirus Replicase and Stimulates Minus-Strand Synthesis” (PLoS Pathogens, 2010).

Biological target: T1, MBP-tagged TCV p88C (lacking the p28-overlapping domain from the N-terminus) (Turnip crinkle virus, UniProt P17460 252-775)
T1 sequence: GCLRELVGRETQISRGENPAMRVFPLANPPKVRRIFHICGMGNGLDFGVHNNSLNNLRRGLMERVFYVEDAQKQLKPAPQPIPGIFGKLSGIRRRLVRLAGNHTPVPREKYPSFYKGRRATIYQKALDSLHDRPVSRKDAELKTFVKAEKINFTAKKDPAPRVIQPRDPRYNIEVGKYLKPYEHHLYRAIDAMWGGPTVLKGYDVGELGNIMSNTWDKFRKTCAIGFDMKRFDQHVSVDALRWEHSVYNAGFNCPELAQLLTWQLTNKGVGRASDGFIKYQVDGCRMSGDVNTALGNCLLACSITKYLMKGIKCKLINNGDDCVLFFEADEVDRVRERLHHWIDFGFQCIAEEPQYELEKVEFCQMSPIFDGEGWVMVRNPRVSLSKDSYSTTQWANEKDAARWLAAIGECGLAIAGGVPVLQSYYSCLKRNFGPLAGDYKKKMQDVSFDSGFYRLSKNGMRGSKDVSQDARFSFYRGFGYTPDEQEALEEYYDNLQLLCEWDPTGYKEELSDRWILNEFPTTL
Assay: cell-based or functional assay

B1: eukaryotic translation elongation factor 1A (eEF1A), wild type (natural protein, S. cerevisiae, UniProt P02994 1-458, looked up)
chain: MGKEKSHINVVVIGHVDSGKSTTTGHLIYKCGGIDKRTIEKFEKEAAELGKGSFKYAWVLDKLKAERERGITIDIALWKFETPKYQVTVIDAPGHRDFIKNMITGTSQADCAILIIAGGVGEFEAGISKDGQTREHALLAFTLGVRQLIVAVNKMDSVKWDESRFQEIVKETSNFIKKVGYNPKTVPFVPISGWNGDNMIEATTNAPWYKGWEKETKAGVVKGKTLLEAIDAIEQPSRPTDKPLRLPLQDVYKIGGIGTVPVGRVETGVIKPGMVVTFAPAGVTTEVKSVEMHHEQLEQGVPGDNVGFNVKNVSVKEIRRGNVCGDAKNDPPKGCASFNATVIVLNHPGQISAGYSPVLDCHTAHIACRFDELLEKNDRRSGKKLEDHPKFLKSGDAALVKFVPSKPMCVEAFSEYPPLGRFAVRDMRQTVAVGVIKSVDKTEKAAKVTKAAQKAAKK
in vitro (−)RNA synthesis by the TCV RdRp on a TBSV (+)RNA template after pre-incubation of purified wt eEF1A with the TCV RdRp: ~5 fold
